Experimental data from publication PMC3504642.

Columns and labels:
FcεRIα (Homo sapiens) = FcεRIα (Homo sapiens) (UniProt P12319); conditions: cited from earlier work
[1] = target: AF488-Fc (C328A/K367C IgE-Fc Cε3-Cε4 protein labeled with Alexa Fluor 488 at residue 367); assay: other fluorescence titration

| Substance | Kd (FcεRIα (Homo sapiens)) | Kd [1] |
| --- | --- | --- |
| IgE Fc Fc (Cε2-Cε4) (from UniProt P01854) | < 0.001 µM | – |
| soluble FcεRI α-chain ectodomain (from UniProt P12319 26-205) (receptor) | – | 0.022 µM |
